From patent US7871782B2, “Specific binding members against synaptophysin” (The University Court of the University of Aberdeen, priority 2004, dated 2011)

B1: FITC-C1-3 scAb: C1-3 scAb labelled with FITC (conjugate)
scFv: MAEVQLLESGGGLVQPGGSLRLSCAASGFTFSSYAMSWVRQAPGKGLEWVSTIAASGPSTGYADSVKGRFTISRDNSKNTLYLQMNSLRAEDTAVYYCAKTTAKFDYWGQGTLVTVSSGGGGSGGGGSGGGGSTDIQMTQSPSSLSASVGDRVTITCRASQSISSYLNWYQQKPGKAPKLLIYSASRLQSGVPSRFNGSGSGTDFTLTISSLQPEDFATYYCQQLQRKPTTFGQGTKVEIKRGAAAPSVFIFPPSDEQLKSGTASVVCLLNNFYPREAKVQWKVDNALQSGNSQESVTEQDSKDSTYSLSSTLTLSKADYEKHKVYACEVTHQGLSSPVTKSFNRGESHHHHHH

Tests used:
HSCs = assay: Effect of scAb incubation on HSC viability (attachment, protein assay); format: cell-based, human; conditions: 3 hours incubation, 5 μg scAb or indicated chemical, FIG. 12
Method: Effect of scAb incubation on HSC viability. HSCs seeded into 24 well plates were incubated in 0.3 mls culture medium containing 5 μg scAb or the indicated-chemical. Cells were incubated for 3 hours prior to removal of medium and washing with 1×PBS. Attachment (as a measure of viability) was determined by a direct protein assay in the culture wells.

human HSCs [1] = assay: HSC viability with gliotoxin and C1-3-gliotoxin conjugate; format: cell-based; conditions: 1.5 uM gliotoxin; 10 ug C1-3-gliotoxin conjugate in 500 ul medium; FIG. 14
Method: HSC viability. Human HSCs in 24 well plate culture were treated with 500 ul medium containing either DMSO vehicle; 1.5 uM gliotoxin (750 pmoles); 20 ul C1-3 scAb at 1 mg/ml (20 ug C1-3 scAb); or 20 ul C1-3-gliotoxin conjugate at 0.5 mg/ml (10 ug C1-3 scAb-250 pmoles C1-3 scAb*/1000 pmoles gliotoxidn). *0.5 mg C1-3 protein/ml stock=12.5 uM=12.5 nmoles/ml=12.5 pmol/ul

[2] = test system: hepatic stellate cell and hepatocytes co-cultured; format: cell-based, human
Method: For co-culture experiments, hepatic stellate cells were seeded into hepatocytes cultures (1×10^3 cells per well) and cultured for 24 h prior to experimentation. The C1-3 or FITC-C1-3 scAb was incubated as outlined for pure hepatic stellate cell cultures except that after 1 hour incubation and washing, the cells were harvested by trypsinisation and centrifugation at 1000 rpm for 5 min. The cell pellet was then resuspended in 0.4% formaldehyde/10^6 cells, applied onto glass slides by cytocentrifugation and mounted with Vectashield containing DAPI. Slides were viewed by fluorescence microscopy as before.

human HSC = assay: FACS analysis of human HSC cultures; format: cell-based; conditions: co-staining under native conditions prior to fixing, 1 hour 37° C., FIG. 10
Method: FACS analysis of human HSC incubated without (UPPER PANEL) or with (LOWER PANEL) primary antibodies—i.e. FITC-C13 scAb (FITC) and a mouse monoclonal antibody to α-smooth muscle actin (αsma-APC). Anti-α-smooth muscle actin antibody was detected using a biotin conjugated secondary antibody followed by fluorophore-streptavidin conjugate incubation as outlined in the Methods section. Figures represent the percentage of cells in each quadrant. Data are typical of 3 separate cell preparations.
FITC-C1-3 scAb was added to culture medium (200 μg/10 mls) and incubated with a confluent (10 cm diameter dish) culture of HSCs for 1 hour at 37° C. The medium was then removed and the cells were washed in PBS. The cells were then detached from the culture substratum non-enzymatically using cell dissociation solution (Sigma, Poole, UK), pelleted by centrifugation and fixed/permeabilised using BD cytofix/cytoperm (BD Biosciences, Oxford, UK). After 15 minutes, the cells were washed in 0.5 mls 1× wash/perm buffer (BD Biosciences, Oxford, UK) and incubated with a mouse anti-α-smooth muscle actin monoclonal antibody (Sigma, Poole, UK) diluted in 1× wash/perm buffer. […] The cells were analysed by flow cytometry (LSR I, BD, Oxford, UK). […]

human HSCs [3] = assay: Uptake of scAb and conjugates by human HSCs in culture (Western blot of medium); format: cell-based; conditions: 5 μg scAb in 0.3 mls medium, FIG. 11
Method: Uptake of C1-3 scAb and C1-3-conjugates by human HSCs in culture. HSCs seeded into 24 well plates were incubated in 0.3 mls culture medium containing 5 μg scAb. Samples of medium were taken at the indicated times and subjected to Western blotting to detect scAb using HRP-conjugated anti-human Cκ light chain antibody (UPPER PANEL) and serum albumin (LOWER PANEL) as a loading control. Results typical of 4 separate experiments.

human HSCs [4] = assay: Fluorescence microscopy without fixation: effect of peptides and monensin on FITC-C1-3 scAb binding; format: cell-based; conditions: 10 μg scAb, 1 hour, no fixation, FIG. 13
Method: Effect of synaptophysin peptides and monensin on FITC-C1-3 scAb binding to human HSCs. Human HSCs seeded into 24 well plates were washed and incubated in 500 μl Hepes/HBSS per well for 1 hour containing either: 10 μg C1-3 scAb; 10 μg FITC-C1-3 scAb; 10 μg FITC-C1-3 scAb and 0.25 nmoles of the target peptide; 10 μg FITC-C1-3 scAb and 2.5 nmoles of the target peptide; 10 μg FITC-C1-3 scAb and 25 nmoles of the target peptide; 10 μg FITC-C1-3 scAb and 25 nmoles of the target peptide P1; 10 μg FITC-C1-3 scAb and 2.5 μM monensin; 10 μg FITC-C1-3 scAb and 15 μM monensin; 10 μg FITC-3A8 scAb (scAb raised to microcystin and not expected to bind to HSCs). Cells incubated with monensin were preincubated for 10 minutes. Just prior to addition of scAb, the medium was changed and cells were re-dosed with monensin. […] Bar=μm. Monen=monensin; P1=the […] peptide (SEQ ID NO 27); P2=the target peptide.
HSCs seeded into 24 well plates were washed with Hepes/HBSS and then incubated at 37° C. in 500 μl/well Hepes/HBSS containing 10 μg scAb with or without additional compounds. After 1 hour, the cells were washed 3 times with 500 μl Hepes/HBSS. Cells were analysed using an Axiovert 100 microscope (Zeiss, Germany) using filter set #9 (BP 450-490 nm; LP 515 nm).

COS-7 cells = assay: Fluorescence binding to cells; format: cell-based
human hepatocytes = assay: Fluorescence microscopy of FITC-labelled scAb with cells; format: cell-based
Method: (§1) FITC-C1-3 scAb was tested for its ability to interact with hepatic stellate cells in culture by fluorescence microscopy. Human hepatic stellate cells were seeded (1×10^3 cells per chamber) on chamber slides (Nunclon, Naperville) in complete medium prior to experimentation. Cells were washed twice in phosphate buffered saline (PBS) and incubated in 500 μl Hepes/HBSS buffer (0.14M NaCl, 5.4 mM KCl, 0.34 mM Na2HPO4, 0.94 mm KH2PO4, 5.6 mM glucose, 1 mM CaCl2, 6 mM HEPES, 4 mM NaHCO3 pH7.4) containing 10 μg scAb or FITC-C1-3 scAb for 1 h at room temperature in the dark. The cells were then washed in PBS and mounted with Vectashield mounting medium (Vector laboratories, Burlingame, Calif.) containing 4′,6′ diamindino-2 phenylindole (DAPI) to stain cell nuclei and coverslips applied. Florescence microscopy was carried out using a Zeiss Axeola II microscope with a Photometrics Sensis camera, and data captured using the Smart Capture programme. Human hepatocytes (UK Human Tissue Bank) were originally cultured in a collagen-coated 24 well plate (1×10^5/well) and maintained in William's medium E supplemented with 80 units/ml penicillin and 80 μg/ml streptomycin.

[5] = test system: human hepatic stellate cells; assay: as above; format: cell-based
Method: as §1

HepG2 cells = assay: Fluorescence binding to cells; format: cell-based

| Molecule | toxicity to HSCs (attachment as measure of viability) (HSCs) | killing of human HSCs (human HSCs [1]) | green fluorescence in hepatic stellate cell/hepatocyte co-cultures [2] | binding to α-smooth muscle actin positive human HSCs (FACS) (human HSC) | association with HSCs: change of culture medium concentration of scAb (human HSCs [3]) | association of FITC-labelled scAb with HSCs (human HSCs [4]) | fluorescence binding to COS-7 cells (COS-7 cells) | green fluorescence associated with human hepatocytes (human hepatocytes) | green fluorescence associated with hepatic stellate cells ([5]; 10 μg scAb, 1 h, room temperature) | location of fluorescence in hepatic stellate cells ([5]; mounting medium with DAPI) | fluorescence binding to HepG2 cells (HepG2 cells) |
| --- | --- | --- | --- | --- | --- | --- | --- | --- | --- | --- | --- |
| CN1C(=O)[C@]23CC4=CC=C[C@H](O)[C@H]4N2C(=O)[C@@]1(CO)SS3 [gliotoxin] | kill HSCs | killed human HSCs |  |  |  |  |  |  |  |  |  |
| B1 |  |  | Fluorescence was observed on stellate cells whilst hepatocytes consistently failed to display detectable levels of associated green fluorescence | all the cells bound C1-3 scAb | reduction in culture medium concentrations | associated with HSCs | not detected | no associated green fluorescence | fluorescence was associated with hepatic stellate cells | fluorescence was located around the nuclear and cell membranes | not detected |
